We go through eleven proteins from FireProtDB.

The conditions of the data set: whole UniProt chain shown.
[1] abbreviates: Saccharolobus solfataricus (strain ATCC 35092 / DSM 1617 / JCM 11322 / P2), pH 5.5, Thermal, CD, Acetate 50 mM.
[2] abbreviates: Streptomyces tendae, pH 2, Thermal, DSC, Sodium phosphate 10 mM, Na2SO4 10 mM, reversible: yes.
[3] abbreviates: Streptomyces tendae, pH 5, 25 °C, Thermal, DSC, Sodium phosphate 10 mM, Na2SO4 10 mM, reversible: yes.
[4] abbreviates: Streptomyces tendae, pH 7, Thermal, DSC, Sodium phosphate 10 mM, Na2SO4 10 mM, reversible: yes.
The mark [5] stands for this setting: Staphylococcus aureus (strain NCTC 8325 / PS 47), pH 8.5, Urea, fluorescence, Tris-Cl, transition: 2, reversible: yes.

Values joined by “and” are separate entries in the source; they are usually repeats but may differ in a detail not shown here. Identical values can stand only once.

B1: Cytidine deaminase wild type, Q9S3M0 (protein)
chain: MDVEKLIAESKKAREQAYVPYSKFPVGAALLAEDGTIYHGCNIENSAYSMTNCAERTAFFKAVSDGVRSFKALAVVADTEGPVSPCGACRQVIAEFCNGSMPVYLTNLKGDIEETTVAKLLPGAFSKEDLSYAAEQ
On to B1, for which the unfolding free energy (Sporosarcina psychrophila, pH 7, 25 °C, GdnHCl, CD, potassium phosphate 20 mM, reversible: no) is 3 kcal/mol.

B2: Acylphosphatase wild type, Q97ZL0 (protein)
chain: MKKWSDTEVFEMLKRMYARVYGLVQGVGFRKFVQIHAIRLGIKGYAKNLPDGSVEVVAEGYEEALSKLLERIKQGPPAAEVEKVDYSFSEYKGEFEDFETY
In the case of B2, for the setting “Saccharolobus solfataricus (strain ATCC 35092 / DSM 1617 / JCM 11322 / P2), pH 5.5, 28 °C, GdnHCl, CD, Acetate 50 mM”, the unfolding free energy is 11.6 kcal/mol. For the same protein, the unfolding free energy (Saccharolobus solfataricus (strain ATCC 35092 / DSM 1617 / JCM 11322 / P2), pH 5.5, 81 °C, GdnHCl, CD, Acetate 50 mM) came to 4.94 kcal/mol. Further, under setting [1], the Tm – broadly, the temperature at the midpoint of the melting transition – amounted to 101 °C; the “heat capacity change of unfolding” value came out at 1.15 kcal/mol/K; the “unfolding enthalpy (van 't Hoff)” value stood at 105 kcal/mol.

B3: Alpha-amylase inhibitor HOE-467A wild type, P01092 (protein)
chain: MRVRALRLAALVGAGAALALSPLAAGPASADTTVSEPAPSCVTLYQSWRYSQADNGCAQTVTVKVVYEDDTEGLCYAVAPGQITTVGDGYIGSHGHARYLARCL
As for B3, under setting [2], the midpoint of thermal melting (Tm) is 68.3 °C, the “heat capacity change of unfolding” value turned out to be 0.69 kcal/mol/K and the “unfolding enthalpy (calorimetric)” value is 56.4 kcal/mol. Further, under setting [3], the “heat capacity change of unfolding” value is 0.69 kcal/mol/K, the “unfolding enthalpy (calorimetric)” value was 26.3 kcal/mol and the unfolding free energy was found to be 6.7 kcal/mol. Under setting [4], the midpoint of thermal melting (Tm) is 81.6 °C, the “heat capacity change of unfolding” value turned out to be 0.69 kcal/mol/K and the “unfolding enthalpy (calorimetric)” value is 65.6 kcal/mol.

B4: Scaffolding protein wild type, P26748 (protein)
chain: MEPTTEIQATEDLTLSGDHAAASADSLVVDNANDNAGQEEGFEIVLKDDETAPKQDPAKNAEFARRRIERKRQRELEQQMEAVKRGELPESLRVNPDLPPQPDINAYLSEEGLAKYDYDNSRALAAFNAANTEWLMKAQDARSNAVAEQGRKTQEFTQQSAQYVEAARKHYDAAEKLNIPDYQEKEDAFMQLVPPAVGADIMRLFPEKSAALMYHLGANPEKARQLLAMDGQSALIELTRLSERLTLKPRGKQISSAPPADQPITGDVSAANKDAIRKQMDAAASKGDVETYRKLKAKLKGIR
B4: the melting temperature (Tm) (Salmonella phage P22, pH 7.6, Thermal, Fluorescence, phosphate 0.3 micro M, NaCl 0.3 micro M) stood at 58 °C.

B5: Putative peptidyl-prolyl cis-trans isomerase wild type, Q2FZU9 (protein)
chain: MANYPQLNKEVQQGEIKVVMHTNKGDMTFKLFPNIAPKTVENFVTHAKNGYYDGITFHRVINDFMIQGGDPTATGMGGESIYGGAFEDEFSLNAFNLYGALSMANSGPNTNGSQFFIVQMKEVPQNMLSQLADGGWPQPIVDAYGEKGGTPWLDQKHTVFGQIIDGETTLEDIANTKVGPQDKPLHDVVIESIDVEE
Consider B5, for which, under setting [5], the denaturant m value was 0.85 kcal/mol/M and 1.18 kcal/mol/M; the “denaturant midpoint (higher = more stable)” value was 3.19 M and 1.83 M; the unfolding free energy was 2.66 kcal/mol and 2.17 kcal/mol.

B6: Cytochrome P450 119 wild type, Q55080 (protein)
chain: MYDWFSEMRKKDPVYYDGNIWQVFSYRYTKEVLNNFSKFSSDLTGYHERLEDLRNGKIRFDIPTRYTMLTSDPPLHDELRSMSADIFSPQKLQTLETFIRETTRSLLDSIDPREDDIVKKLAVPLPIIVISKILGLPIEDKEKFKEWSDLVAFRLGKPGEIFELGKKYLELIGYVKDHLNSGTEVVSRVVNSNLSDIEKLGYIILLLIAGNETTTNLISNSVIDFTRFNLWQRIREENLYLKAIEEALRYSPPVMRTVRKTKERVKLGDQTIEEGEYVRVWIASANRDEEVFHDGEKFIPDRNPNPHLSFGSGIHLCLGAPLARLEARIAIEEFSKRFRHIEILDTEKVPNEVLNGYKRLVVRLKSNE
In the case of B6, the Tm (Sulfolobus acidocaldarius (strain ATCC 33909 / DSM 639 / JCM 8929 / NBRC 15157 / NCIMB 11770), pH 7.4, Thermal, absorbance, Tris) came out at 91 °C.

B7: Methylated-DNA--protein-cysteine methyltransferase wild type, Q97VW7 (protein)
chain: MLVYGLYKSPLGYITVAKDDKGFIMLDFCDCVEGNSRDDSSFTEFFHKLDLYFEGKPINLREPINLKTYPFRLSVFKEVMKIPWGKVMTYKQIADSLGTSPRAVGMALSKNPILLIIPCHRVIAENGIGGYSRGVKLKRALLELEGVKIPE
Take B7: the Tm (Saccharolobus solfataricus (strain ATCC 35092 / DSM 1617 / JCM 11322 / P2), pH 7.4, Thermal, DSF, PBS, transition: 2) came to 82.9 °C.

B8: Cytochrome c2 wild type, P00094 (protein)
chain: MKISLTAATVAALVLAAPAFAGDAAKGEKEFNKCKTCHSIIAPDGTEIVKGAKTGPNLYGVVGRTAGTYPEFKYKDSIVALGASGFAWTEEDIATYVKDPGAFLKEKLDDKKAKTGMAFKLAKGGEDVAAYLASVVK
In the case of B8, the “denaturant midpoint (higher = more stable)” value (Rhodobacter capsulatus (strain ATCC BAA-309 / NBRC 16581 / SB1003), pH 7.5, 30 °C, GdnHCl, CD, Tris 20 mM) was determined as 1.54 M.

B9: Streptogrisin-B wild type, P00777 (protein)
chain: MRIKRTSNRSNAARRVRTTAVLAGLAAVAALAVPTANAETPRTFSANQLTAASDAVLGADIAGTAWNIDPQSKRLVVTVDSTVSKAEINQIKKSAGANADALRIERTPGKFTKLISGGDAIYSSTGRCSLGFNVRSGSTYYFLTAGHCTDGATTWWANSARTTVLGTTSGSSFPNNDYGIVRYTNTTIPKDGTVGGQDITSAANATVGMAVTRRGSTTGTHSGSVTALNATVNYGGGDVVYGMIRTNVCAEPGDSGGPLYSGTRAIGLTSGGSGNCSSGGTTFFQPVTEALSAYGVSVY
Turning to B9, under “Streptomyces griseus, pH 5, 0 °C, GdnHCl, Fluorescence, potassium acetate 10 mM”, the unfolding free energy turned out to be 0.71 kcal/mol.

B10: Divalent-cation tolerance protein CutA wild type, Q7SIA8 (protein)
chain: MEEVVLITVPSEEVARTIAKALVEERLAACVNIVPGLTSIYRWQGEVVEDQELLLLVKTTTHAFPKLKERVKALHPYTVPEIVALPIAEGNREYLDWLRENTG
As for B10, the Tm (Thermus thermophilus (strain ATCC 27634 / DSM 579 / HB8), pH 7, Thermal, DSC, potassium phosphate 50 mM, reversible: No) amounted to 113 °C.

B11: Inorganic pyrophosphatase wild type, P50308 (protein)
chain: MKLSPGKNAPDVVNVLVEIPQGSNIKYEYDDEEGVIKVDRVLYTSMNYPFNYGFIPGTLEEDGDPLDVLVITNYQLYPGSVIEVRPIGILYMKDEEGEDAKIVAVPKDKTDPSFSNIKDINDLPQATKNKIVHFFEHYKELEPGKYVKISGWGSATEAKNRIQLAIKRVSGGQ
Turning to B11, the midpoint of thermal melting (Tm) reads like this: (Sulfolobus acidocaldarius (strain ATCC 33909 / DSM 639 / JCM 8929 / NBRC 15157 / NCIMB 11770), pH 7, Thermal, CD, HEPES 20 mM, MgCl2 5 mM) 98 °C; (Sulfolobus acidocaldarius (strain ATCC 33909 / DSM 639 / JCM 8929 / NBRC 15157 / NCIMB 11770), pH 7, Thermal, CD, HEPES 20 mM) 89 °C.
